Measurements reported in patent US20220386594A1 (IBI AG INNOVATIVE BIO INSECTICIDES, published 2022).

T1: Helicoverpa armigera chitin synthase (Helicoverpa armigera)
T1 construct: the tag is not part of the printed entry; also called CHS; target CHS antigen
T1 chain: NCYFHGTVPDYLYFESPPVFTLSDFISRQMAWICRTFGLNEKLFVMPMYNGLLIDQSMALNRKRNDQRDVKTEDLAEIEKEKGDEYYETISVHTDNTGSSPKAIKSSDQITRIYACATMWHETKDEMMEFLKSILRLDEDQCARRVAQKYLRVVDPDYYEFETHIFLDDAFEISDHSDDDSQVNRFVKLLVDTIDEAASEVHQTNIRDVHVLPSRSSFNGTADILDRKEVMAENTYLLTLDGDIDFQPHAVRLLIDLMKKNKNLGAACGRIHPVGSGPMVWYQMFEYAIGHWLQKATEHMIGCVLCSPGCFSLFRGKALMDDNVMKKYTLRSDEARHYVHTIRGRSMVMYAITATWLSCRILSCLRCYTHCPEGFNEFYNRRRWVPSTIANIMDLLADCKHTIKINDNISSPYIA

T2: Helicoverpa armigera NPC1 sterol transporter (Helicoverpa armigera)
T2 construct: the tag is not part of the printed entry; also called target NPC antigen; target NPC1 antigen
T2 chain: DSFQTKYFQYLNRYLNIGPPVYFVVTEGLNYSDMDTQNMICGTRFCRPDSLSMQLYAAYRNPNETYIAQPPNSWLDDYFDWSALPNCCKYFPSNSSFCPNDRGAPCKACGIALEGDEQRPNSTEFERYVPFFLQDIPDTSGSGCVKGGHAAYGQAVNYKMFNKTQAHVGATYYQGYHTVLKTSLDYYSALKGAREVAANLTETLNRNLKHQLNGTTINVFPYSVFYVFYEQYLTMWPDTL

T3: Helicoverpa armigera V-ATPase subunit c (Helicoverpa armigera)
T3 construct: also called V-ATPases Subunit C; ATPase V subunit c
T3 chain: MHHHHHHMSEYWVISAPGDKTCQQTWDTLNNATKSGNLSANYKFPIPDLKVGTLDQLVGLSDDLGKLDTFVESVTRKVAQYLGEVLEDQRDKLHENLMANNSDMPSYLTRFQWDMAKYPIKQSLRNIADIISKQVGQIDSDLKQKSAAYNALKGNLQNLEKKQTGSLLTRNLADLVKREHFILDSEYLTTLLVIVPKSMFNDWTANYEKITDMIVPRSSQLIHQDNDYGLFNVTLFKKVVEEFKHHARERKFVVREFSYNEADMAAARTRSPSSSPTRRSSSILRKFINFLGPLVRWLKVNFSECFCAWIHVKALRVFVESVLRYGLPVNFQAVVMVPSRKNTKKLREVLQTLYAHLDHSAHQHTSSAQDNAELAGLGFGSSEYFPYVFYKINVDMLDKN

T4: Helicoverpa armigera trehalase (Helicoverpa armigera)
T4 construct: the tag is not part of the printed entry; also called TRH; target TRH antigen
T4 chain: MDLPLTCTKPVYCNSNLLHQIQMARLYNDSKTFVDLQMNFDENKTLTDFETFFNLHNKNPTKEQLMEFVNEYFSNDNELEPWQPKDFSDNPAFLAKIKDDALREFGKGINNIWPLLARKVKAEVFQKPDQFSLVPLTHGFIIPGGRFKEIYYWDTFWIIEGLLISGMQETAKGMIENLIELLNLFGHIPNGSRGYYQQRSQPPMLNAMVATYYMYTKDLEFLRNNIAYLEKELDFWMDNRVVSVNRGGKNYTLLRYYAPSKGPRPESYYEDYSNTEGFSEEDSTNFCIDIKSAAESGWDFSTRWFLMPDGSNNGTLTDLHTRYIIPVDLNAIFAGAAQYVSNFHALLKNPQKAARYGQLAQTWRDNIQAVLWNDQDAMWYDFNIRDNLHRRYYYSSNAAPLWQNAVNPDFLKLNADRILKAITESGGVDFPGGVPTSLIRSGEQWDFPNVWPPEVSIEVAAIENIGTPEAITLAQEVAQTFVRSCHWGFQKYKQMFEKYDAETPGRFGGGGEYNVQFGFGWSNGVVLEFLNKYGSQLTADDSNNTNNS


Biological target: T1, Helicoverpa armigera chitin synthase
Assay: ELISA, plate coated with 10 ug/ml target protein, 2 ug/ml nanobody, anti-VHH-HRP, A450

Binder | binding result
CHS22 (VHH, Llama nanobody, His-tagged, expressed in E. coli SHuffle T7; also called anti-CHS nanobody CHS22) VHH: QVQLQESGGGLVQAGGSLRLSCAASGGTFSGLTMGWFRQAPGKERDFVAAISWNGRFTYYKDSVKGRFAISRDNAKSTVYLQMTSLKPEDTAVYYCGADVLSGRGYRYWGQGTQVTVSS | binds
CHS18 (VHH, Llama nanobody, His-tagged, expressed in E. coli SHuffle T7; also called anti-CHS nanobody CHS18) VHH: QVQLQESGGGLVQAGGSLRLSCTASGRTFSSYSMAWFRQASGKEREIVAAVSRFGKFKYYADSVKGRFTISRDNAKNTLYLQMNSLKPEDTAVYYCAKTDGSSWYLDYWGQGTQVTVSS | binds
CHS08 (VHH, Llama nanobody, His-tagged, expressed in E. coli SHuffle T7; also called CHS8; anti-CHS nanobody CHS08) VHH: QVQLQESGGGLVQAGSSLRLSCAASGRTFRYHAMGWFRQAPGKEREFVAGISTSGGMTYYPDSVKGRFTISRDNAKNTLYLQMNSLKPGDTAVYYCAKFHGDKGYGSSWYYDYWGQGTQVTVSS | binds
CHS13 (VHH, Llama nanobody, His-tagged, expressed in E. coli SHuffle T7; also called anti-CHS nanobody CHS13) VHH: QVQLQESGGGLVQAGGSLRLSCTVSGGTFTTYTMAWFRQAPGKEREFVAQISWSGGITAYLDSVKGRFTISRDNAKNTVYLQMNSLKPEDTAVYYCARRGRKYEDDYWGQGTQVTVSS | binds
CHS24 (VHH, Llama nanobody, His-tagged, expressed in E. coli SHuffle T7; also called anti-CHS nanobody CHS24) VHH: QVQLQESGGGWVQPGGSLRLSCTISGLSRYYAMGWFRQVPGKERESVATISLRGGRTYYADSVEGRFTISRDNAKNTMYLQMNSLKPEDTAVYYCVADTTWGAPRSRYHYWGQGTQVTVSS | binds
CHS01A (VHH, Llama nanobody, His-tagged, expressed in E. coli SHuffle T7; also called CHS1a; anti-CHS nanobody CHS01A) VHH: QVQLQESGGGLVQAGGSLRLSCSASTSIASINAVGWYRQAPGKQRELVAVIVNGSTTRYADSVKGRFTISGDNAENTVPLLMSSLKPEDTAIYYCGARDLSGTYWGQGTQVTVSS | binds
CHS02A (VHH, Llama nanobody, His-tagged, expressed in E. coli SHuffle T7; also called CHS2a; anti-CHS nanobody CHS02A) VHH: QVQLQESGGGLVQAGGSLRLSCAASRGTFSRYVMGWFRQGPGKEREFVAGISWSGISTYYADFVKGRFTISRDNAKNTVYLQMNSLKPEDTAVYYCAADPGRGYDYWGQGTQVTVSS | binds

Biological target: T2, Helicoverpa armigera NPC1 sterol …
Assay: as above

Binder | binding result
NPC0901 (VHH, Llama nanobody, His-tagged, expressed in E. coli SHuffle T7; also called NPC9; anti-NPC nanobody NPC0901) VHH: QVQLQESGGGLVQAGDSLRISCKASGRTFSNYPIGWFRQAPGKEREFVAAISRSGGGTRYADSVKGRFTISRDNAKNTVYLQMNSLKRDDTAVYYCAAYFGNLGGGVGRSSDYDYWGQGTQVTVSS | binds
NPC07A01 (VHH, Llama nanobody, His-tagged, expressed in E. coli SHuffle T7; also called NPC7a; anti-NPC nanobody NPC07A01) VHH: QVQLQESGGGLVQAGDSLRISCKASGRTFSSYPIGWFRQAPGKEREFVAAISRSGGRTYYADSVKGRLTISRDNAKNTVYLQMNSLKLEDTAVYYCAAKTTMGLPVGGTYEYDYWGQGTQVTVSS | binds
NPC04C01 (VHH, Llama nanobody, His-tagged, expressed in E. coli SHuffle T7; also called NPC4c; NPC4C) VHH: QVQLQESGGGLVQAGGSLRLSCAASGRTFSSYVMGWFRQAPGKERELIGAINRSSTRLYYADSVKGRFSISRDNAKSTVYLQMNSLKPEDTAVYYCAADLVSILGKGYRDVDYWGQGTQVTVSS | binds
NPC04D01 (VHH, Llama nanobody, His-tagged, expressed in E. coli SHuffle T7; also called NPC4d; NPC4D) VHH: QVQLQESGGGLVQPGGSLRVSCAASGFSFSNYVMGWFRQAPGKERELIGAINRSSTRLYYADSVKGRFSISRDNAKSTVYLQMNSLKPEDTAVYYCAADLVSILGKGYRDVDYWGQGTQVTVSS | binds
NPC01C01 (VHH, Llama nanobody, His-tagged, expressed in E. coli SHuffle T7; also called NPC1c; anti-NPC nanobody NPC01C01) VHH: QVQLQESGGGLVQVGGSLRISCVASGRTGSYYAMGWFRQAPGKEREFVAAISWNGGMTDYADFVKGRFAISRDNAKTVSLQMNNLKPEDTALYYCTAGPARRSYSYRDGYDYWGQGTQVTVSS | binds

Biological target: T3, Helicoverpa armigera V-ATPase subunit c
Assay: as above

Binder | binding result
VAT0101B (VHH, Llama nanobody, His-tagged, expressed in E. coli SHuffle T7; also called anti-VAT nanobody VAT0101B) VHH: QVQLQESGGGLVQAGGSLRLSCAASGSTLSGYIMSWFRQPPGKERELVAAITYVGSTYVEDSVKGRFTISRDNAKNTVSLQMNSLKPEDTAVYYCRAREGEQLDFWGQGTQVTVSS | binds
VAT0101G (VHH, Llama nanobody, His-tagged, expressed in E. coli SHuffle T7; also called VATO101G; anti-VAT nanobody VAT0101G) VHH: QVQLQESGGGLVQAGGSLRLSCAASGSTFSGYIMSWFRQPPGKERELVAAITYVGSTWYQDSVKGRFTISRDNAKNTVSLQMNSLKPEDTAVYYCRAREGEQLDFWGQGTQVTVSS | binds
VAT0101D (VHH, Llama nanobody, His-tagged, expressed in E. coli SHuffle T7; also called anti-VAT nanobody VAT0101D) VHH: QVQLQESGGGLVQPGGSLRLSCVASGSTFSGYIMSWFRQPPGKERELVAAITYVGSTYVEDSVKGRFTISRDNAKNTVSLQMNSLKPEDTAVYYCRAREGEQLDFWGQGTQVTVSS | binds
VAT0101C (VHH, Llama nanobody, His-tagged, expressed in E. coli SHuffle T7; also called anti-VAT nanobody VAT0101C) VHH: QVQLQESGGGLVQSGDSLRLSCAASGSTFSGYIMSWFRQPPGKERELVAAITYVGSTYVEDSVKGRFTISRDNAKNTVSLQMNSLKPEDTAVYYCRAREGEQLDFWGQGTQVTVSS | binds
VAT0101E (VHH, Llama nanobody, His-tagged, expressed in E. coli SHuffle T7; also called anti-VAT nanobody VAT0101E) VHH: QVQLQESGGGLVQAGDSLRLSCAASGSTFSGYIMSWFRQPPGKERELVAAITYVGSTYVEDSVKGRFTISRDNAKNTVSLQMNSLKPEDTAVYYCRAREGEQLDFWGQGTQVTVSS | binds
VAT0101F (VHH, Llama nanobody, His-tagged, expressed in E. coli SHuffle T7; also called anti-VAT nanobody VAT0101F) VHH: QVQLQESGGGTVQAGGSLRLSCAASGSTFSGYIMSWFRQPPGKERELVAAITYVGSTYVEDSVKGRFTISRDNAKNTVSLQMNSLKPEDTAVYYCRAREGEQLDFWGQGTQVTVSS | binds

Biological target: T4, Helicoverpa armigera trehalase
Assay: as above

Binder | binding result
TRH1A (VHH, Llama nanobody, His-tagged, expressed in E. coli SHuffle T7; also called anti-TRH nanobody TRH1A) VHH: QVQLQESGGGLVQAGGSLRLSCATSGRAFTNYHMGWFRQTPGKEREFVALISWSGDSTRYADSVKGRFTISRDNAKRTVALQMDSLKPEDSAVYYCASRLVGQSQYEVWGQGTQVTVSS | binds
TRH12 (VHH, Llama nanobody, His-tagged, expressed in E. coli SHuffle T7; also called anti-TRH nanobody TRH12) VHH: QVQLQESGGGLVQAGGSLRLSCAASTSTVSDYHMGWFRQGPGKEREFVAAISWSGDSTDYADSVKARFTISRDNAKKTMSLQMNSLKPEDTAAYYCAARRVFKATWDYWGQGTQVTVSS | binds
TRH13 (VHH, Llama nanobody, His-tagged, expressed in E. coli SHuffle T7; also called anti-TRH nanobody TRH13) VHH: QVQLQESGGGLVQAGGSLRLTCAATVRIFSSYTMGWFRQSPGKEREFVGAITWSGGNTYYADSVKGRFTISRDNAKNTVYLQMNSLKSEDTAVYYCAADPGRSYVLSRYYDQASYDYWGQGTQVTVSS | binds
TRH14 (VHH, Llama nanobody, His-tagged, expressed in E. coli SHuffle T7; also called anti-TRH nanobody TRH14) VHH: QVQLQESGGGLVQAGDSLRLSCAASGRPFSSYTMGWFRQAPGKEREFVAAISWSGGTTYYTDSVQGRFTISRDNAKNTVYLQMNRLKPEDTAVYYCATDVGRIYGGGSLYSSAFSYDYWGQGTQVTVSS | binds
